From publication PMC6940360

Biological target: Taxol-stabilized microtubules (MTs) from HeLa S3 cells (human (endogenous in HeLa S3)) (UniProt P68363)
Test: solid-state NMR (J-based 2D 15N-HSQC); unlabeled MAP7-MTBD added to [13C,15N]-labeled MTs at molar ratio 2:1 MAP7-MTBD:MT in BRB80 with 20 uM taxol, 30 °C for 30 min, pelleted at 180,000 x g; MAS 44 kHz, actual temperature 293 K; bound population from a two-state model, P_bound = 1 - I_bound/I_free

B1: MAP7-MTBD (microtubule-binding domain of MAP7D3, residues 59-170) (domain or fragment)
chain: DGSMLKNDIKQRLARERREEKRRQQDANKETQLLEKERKTKLQYEKQMEERQRKLKERKEKEEQRRIAAEEKRHQKDEAQKEKFTAILYRTLERRRLADDYQQKRWSWGGSA
- bound population of alpha-tubulin Tyr451 (P bound): 65%
- bound population of beta-tubulin Ala444 (P bound): 25%
- bound population of tail residues around the EGE and FGE segments (P bound): < 80%
